Laboratory results from publication PMC11187563, “The importance of tyrosines in multimers of cyclic RGD nonapeptides: towards αvβ6-integrin targeted radiotherapeutics” (RSC Medicinal Chemistry, 2024).
Like-named read-outs stand apart in the source and are kept apart here.

Experiments:
[1] = Ex vivo biodistribution of 177Lu-labeled peptide tetramers in H2009 xenografted SCID mice; settings: CB17 SCID, mouse, iv, total radioactivity, H2009 bearing SCID mice; for tissue uptake at 72 h / tissue to tissue ratio at 72 h: 42 pmol, 3 d p.i.; for tissue uptake at 1.5 h / tissue to tissue ratio at 1.5 h: 139 pmol, 90 min p.i.
Procedure: (§1) The biodistribution of the ^177Lu-labeled peptide conjugates was investigated in severe combined immunodeficiency (SCID) mice bearing subcutaneous xenografts of the αvβ6-integrin expressing human lung adenocarcinoma cell line H2009 on their right shoulders. Two representative time points after i.v. administration (p.i.) were evaluated.
(§2) Analytical HPLC was performed on a Shimadzu (Kyoto, Japan) Prominence HPLC system equipped with either a Dr. Maisch ReproSil Pur C18 AQ 150 × 4.6 mm, 5 μm, 120 Å (AC1) or a Phenomenex Kinetex C18 150 × 4.6 mm 5 μm column (AC2). Semipreparative HPLC was performed on a Shimadzu HPLC system equipped with either a Dr. Maisch ReproSil Pur C18 AQ 250 × 10 mm, 5 μm, 120 Å column with 5 mL min^−1 flow (PC1) or a Dr. Maisch ReproSil Pur C18 150 × 30 mm, 5 μm, 120 Å column with 20 mL min^−1 flow (PC2). Solvents for both systems were water (A) and acetonitrile (B) each supplemented with 0.1% (vol) trifluoroacetic acid (TFA). ESI-MS spectra (positive mode) were recorded on a Shimadzu LC-MS 2020 single quadrupol mass spectrometer. Solvents for MS applications were water (A) and acetonitrile (B) each supplemented with 0.1% (vol) formic acid. The other experimental procedures (determination of log D7.4, cultivation of H2009 human lung adenocarcinoma cells, generation of tumor xenografts in CB17 SCID mice, and biodistribution) were performed as described before.[28] All animal experiments have been carried out according to applicable law and institutional guidelines of Technical University of Munich, and were approved by the responsible local authority (Regierung von Oberbayern). The H2009 cells were regularly authenticated and tested for mycoplasma contamination. DOTPI-tetraazide,[43]FF (previously termed AvB6),[29]FY,[34] and YY (also referred to as Tyr2-alkyne)[36] were synthesized as described previously.

[2] = system: αvβ6-integrin expressing human lung adenocarcinoma cell line H2009 xenografts; assay: as above; settings: H2009 bearing SCID mice
Procedure: as §1, §2

[3] = H2009 tumor, read-out: Tumor H2009 %IA/g
[4] = adrenals, read-out: Adrenals %IA/g
[5] = heart (myocard), read-out: Heart (myocard) %IA/g
[6] = kidneys, read-out: Kidneys %IA/g
[7] = large intestine (empty), read-out: Large intestine (empty) %IA/g
[8] = pancreas, read-out: Pancreas %IA/g
[9] = small intestine (empty), read-out: Small intestine (empty) %IA/g
[10] = stomach (empty), read-out: Stomach (empty) %IA/g
[11] = tumor/blood, read-out: tumor/organ ratio, Blood
[12] = tumor/heart (myocard), read-out: tumor/organ ratio, Heart (myocard)
[13] = tumor/liver, read-out: tumor/organ ratio, Liver
[14] = tumor/lung, read-out: tumor/organ ratio, Lung
[15] = tumor/pancreas, read-out: tumor/organ ratio, Pancreas
[16] = tumor/spleen, read-out: tumor/organ ratio, Spleen

CC(C)C[C@@H]1NC(=O)[C@H](CC(=O)O)NC(=O)CNC(=O)[C@H](CCCNC(=N)N)NC(=O)[C@H](Cc2ccccc2)NC(=O)[C@H](CCCCNC(=O)CCc2cn(CCCNC(=O)CCP(=O)(O)CN3CCN(CP(=O)(O)CCC(=O)NCCCn4cc(CCC(=O)NCCCC[C@H]5C(=O)N[C@@H](Cc6ccccc6)C(=O)N[C@@H](CCCNC(=N)N)C(=O)NCC(=O)N[C@@H](CC(=O)O)C(=O)N[C@@H](CC(C)C)C(=O)N[C@@H](C)C(=O)N[C@@H](Cc6ccc(O)cc6)C(=O)N6CCC[C@@H]6C(=O)N5C)nn4)CCN(CP(=O)(O)CCC(=O)NCCCn4cc(CCC(=O)NCCCC[C@H]5C(=O)N[C@@H](Cc6ccccc6)C(=O)N[C@@H](CCCNC(=N)N)C(=O)NCC(=O)N[C@@H](CC(=O)O)C(=O)N[C@@H](CC(C)C)C(=O)N[C@@H](C)C(=O)N[C@@H](Cc6ccc(O)cc6)C(=O)N6CCC[C@@H]6C(=O)N5C)nn4)CCN(CP(=O)(O)CCC(=O)NCCCn4cc(CCC(=O)NCCCC[C@H]5C(=O)N[C@@H](Cc6ccccc6)C(=O)N[C@@H](CCCNC(=N)N)C(=O)NCC(=O)N[C@@H](CC(=O)O)C(=O)N[C@@H](CC(C)C)C(=O)N[C@@H](C)C(=O)N[C@@H](Cc6ccc(O)cc6)C(=O)N6CCC[C@@H]6C(=O)N5C)nn4)CC3)nn2)N(C)C(=O)[C@H]2CCCN2C(=O)[C@H](Cc2ccccc2)NC(=O)[C@H](C)NC1=O [Compound 177Lu-Y3, metal not drawn]
tissue uptake at 72 h [1, 3]: 2.03 %ID/g | tissue uptake at 1.5 h [1, 3]: 3.7 %ID/g | tissue uptake at 72 h [1, 4]: 0.27 %ID/g | tissue uptake at 1.5 h [1, 4]: 1.04 %ID/g | tissue uptake at 72 h ([1]; blood, read-out: Blood %IA/g): 0.02 %ID/g | tissue uptake at 1.5 h ([1]; blood, read-out: Blood %IA/g): 1.11 %ID/g | tissue uptake at 72 h ([1]; bone, read-out: Bone %IA/g): 0.35 %ID/g | tissue uptake at 1.5 h ([1]; bone, read-out: Bone %IA/g): 1.51 %ID/g | tissue uptake at 72 h [1, 5]: 0.22 %ID/g | tissue uptake at 1.5 h [1, 5]: 0.65 %ID/g | tissue uptake at 72 h [1, 6]: 250 %ID/g | tissue uptake at 1.5 h [1, 6]: 141 %ID/g | tissue uptake at 72 h [1, 7]: 1.34 %ID/g | tissue uptake at 1.5 h [1, 7]: 3.43 %ID/g | tissue uptake at 72 h ([1]; liver, read-out: Liver %IA/g): 1.17 %ID/g | tissue uptake at 1.5 h ([1]; liver, read-out: Liver %IA/g): 7.59 %ID/g | tissue uptake at 72 h ([1]; lung, read-out: Lung %IA/g): 1.22 %ID/g | tissue uptake at 1.5 h ([1]; lung, read-out: Lung %IA/g): 4.91 %ID/g | tissue uptake at 72 h ([1]; muscle, read-out: Muscle %IA/g): 0.47 %ID/g | tissue uptake at 1.5 h ([1]; muscle, read-out: Muscle %IA/g): 0.57 %ID/g | tissue uptake at 72 h [1, 8]: 0.25 %ID/g | tissue uptake at 1.5 h [1, 8]: 0.36 %ID/g | tissue uptake at 72 h [1, 9]: 0.37 %ID/g | tissue uptake at 1.5 h [1, 9]: 2.49 %ID/g | tissue uptake at 72 h ([1]; spleen, read-out: Spleen %IA/g): 1.36 %ID/g | tissue uptake at 1.5 h ([1]; spleen, read-out: Spleen %IA/g): 8.5 %ID/g | tissue uptake at 72 h [1, 10]: 4.76 %ID/g | tissue uptake at 1.5 h [1, 10]: 7.42 %ID/g | tissue to tissue ratio at 72 h ([1]; tumor / adrenals, read-out: tumor/organ ratio, Adrenals): 8.4 | tissue to tissue ratio at 72 h ([1]; tumor / bone, read-out: tumor/organ ratio, Bone): 6.6 | tissue to tissue ratio at 72 h ([1]; tumor / large intestine (empty), read-out: tumor/organ ratio, Large intestine (empty)): 2.3 | tissue to tissue ratio at 72 h ([1]; tumor / muscle, read-out: tumor/organ ratio, Muscle): 5.3 | tissue to tissue ratio at 72 h ([1]; tumor / small intestine (empty), read-out: tumor/organ ratio, Small intestine (empty)): 6.6 | tissue to tissue ratio at 72 h ([1]; tumor / stomach (empty), read-out: tumor/organ ratio, Stomach (empty)): 0.5 | tissue to tissue ratio at 1.5 h ([1]; tumor/adrenals, read-out: tumor/organ ratio, Adrenals): 3.9 | tissue to tissue ratio at 72 h [1, 11]: 129 | tissue to tissue ratio at 1.5 h [1, 11]: 3.4 | tissue to tissue ratio at 1.5 h ([1]; tumor/bone, read-out: tumor/organ ratio, Bone): 2.5 | tissue to tissue ratio at 72 h [1, 12]: 9.4 | tissue to tissue ratio at 1.5 h [1, 12]: 5.8 | tissue to tissue ratio at 1.5 h ([1]; tumor/large intestine (empty), read-out: tumor/organ ratio, Large intestine (empty)): 1.1 | tissue to tissue ratio at 72 h [1, 13]: 1.9 | tissue to tissue ratio at 1.5 h [1, 13]: 0.6 | tissue to tissue ratio at 72 h [1, 14]: 1.7 | tissue to tissue ratio at 1.5 h [1, 14]: 0.8 | tissue to tissue ratio at 1.5 h ([1]; tumor/muscle, read-out: tumor/organ ratio, Muscle): 6.6 | tissue to tissue ratio at 72 h [1, 15]: 10.6 | tissue to tissue ratio at 1.5 h [1, 15]: 10.3 | tissue to tissue ratio at 1.5 h ([1]; tumor/small intestine (empty), read-out: tumor/organ ratio, Small intestine (empty)): 1.5 | tissue to tissue ratio at 72 h [1, 16]: 1.7 | tissue to tissue ratio at 1.5 h [1, 16]: 0.5 | tissue to tissue ratio at 1.5 h ([1]; tumor/stomach (empty), read-out: tumor/organ ratio, Stomach (empty)): 0.5 | tumor/organ ratio, Kidneys ([2]; 90 min p.i.): 0.0 | tumor/organ ratio, Kidneys ([2]; 3 d p.i.): 0.0
